# Source: patent US20130274692A1, “SUBCONJUCTIVAL IMPLANT FOR POSTERIOR SEGMENT DRUG DELIVERY” (priority 2010, published 2013)
# Read-outs that look alike come from different tables or passages of the source.
# Key:
# [1] = Solubility of triamcinolone acetonide; type: physicochemical; details: saline or isotonic; 37 C in 0.2 M potassium chloride
# Experimental: Consider a device with 10 uL reservoir volume loaded with 0.4 mg using a commercial drug product (40 mg/mL triamcinolone acetonide). […] The target release rate is 1 ug/day based upon published clinical data. As an example, consider the 0.2 media grade stainless steel characterized in Example 8 with P/F=0.12 and a thickness of 0.5 mm. […] This could be achieved with a cylindrical device having an inner diameter of 2 mm and a length of porous tubing of 1 mm. Alternatively, the end of the device could be a porous cup with height of 0.8 mm (0.5 mm thick porous face plus 0.3 mm length) of porous tubing.
# [2] = system: laser photocoagulation treatment-induced Grade IV choroidal neovascularization (CNV) lesions; details: intravitreal injection, all doses tested; cited from earlier work
# [3] = human eye (Lucentis package insert); listed as ranibizumab; cited from earlier work
# [4] = cited from earlier work
Compound,solubility [1],development of Grade IV CNV lesions [2],half-life in the vitreous [3],"Half-life ([4]; monkey model (Gaudreault et al.), parameter of Simulations 1-5)","half-life in the vitreous ([4]; rabbit and monkey, listed as ranibizumab)"
CC1(C)O[C@@H]2C[C@H]3[C@@H]4CCC5=CC(=O)C=C[C@]5(C)[C@@]4(F)[C@@H](O)C[C@]3(C)[C@]2(C(=O)CO)O1 [triamcinolone acetonide],19 µg/mL,–,–,–,–
ranibizumab [Lucentis],–,completely inhibited,~220 h,63.1 h,approximately 3 days
